Test results: patent publication US7041283B1, “Methods of using immunophilin binding drugs to improve integration and survival of neuronal cell transplants” (University of Pittsburgh-Of the Commonwealth System of …, priority 2001, dated 2006)

Test system: second trimester human fetal neuroglial cultures
Experiment: Second trimester human fetal neuroglial cultures treated with FK506 and/or BDNF; MAP-2/GFAP immunostaining and propidium iodide cell counts by laser confocal microscopy
Assay type: cell-based
Experimental: Surgical pathology fetal specimens were collected and processed in accordance with the University of Pittsburgh Human Tissue Committee guidelines. Human telencephalic tissues (18-21 weeks of gestation) were collected and placed in DMEM medium (Life Technologies Inc., Grand Island, N.Y.). […] Tissue processing followed a modified mouse brain dissociation protocol. Within 1 hour of collection, the brain material was placed in Ca^++-and Mg^++-free DPBS (Life Technologies), cleaned of meninges, rinsed and minced. Tissue fragments were incubated in 0.05% trypsin-EDTA with additives (Life Technologies) for 5 min at 37° C. and further dissociated. Trypsin inhibitor (10 mg/ml; Sigma, St. Louis, Mo.) was subsequently added, followed by centrifugation for 5 min at 250×g. After filtering through 70 μm nylon-mesh cell strainers (Becton Dickinson, Franklin Lakes, N.J.), the cell suspension was cleaned by gradient centrifugation through an 8% BSA (Sigma) layer (250×g, 10 min). A second filtering was performed using 70 μm and 40 μm nylon-mesh cell strainers (Becton Dickinson). The single cell suspension was counted on a hemocytometer using trypan blue exclusion, brought to a final density of 10^6 cells/ml and plated on poly-l-ornithine (Sigma) and laminin (Life Technologies) coated 12 mm glass coverslips (Fisher, Pittsburgh, PA) on 24-well plates (Becton Dickinson).
Throughout the experiments standard tissue culture techniques were used, in combination with the drug protocol. More specifically, cultures were incubated in 10% CO2 at 37° C. and fed every other day for 1, 5, 12, or 21 days with fresh NPMM (Bio Whittaker, San Diego, Calif.), followed by NPMM with or without various concentrations of FK506 (provided by Dr. A. Zeevi) and/or BDNF (5 ng/ml, Promega, Madison, Wis.).
In an attempt to identify the cell phenotype that is most affected by different treatments, the neuroglial cultures were immunostained for the neuronal marker MAP-2 and the astrocytic marker GFAP. After 7 days of treatment, cultures were washed with PBS and PBS with 0.05% Tween 20 (Sigma), fixed with 4% paraformaldehyde for 30 min and then incubated for 30 min with PBS with 0.2% BSA and 0.1% Triton X (Sigma). Without washing, cultures were incubated overnight at 4° C. with the primary antibodies mouse anti-MAP-2(1:500, Stemberger Monoclonals Inc., Baltimore, Md.) and rabbit anti-GFAP (1:100, Dako, Capinteria, Calif.). After thorough washing with PBS+0.05% Tween 20, a secondary antibody (FITC-conjugated goat anti- mouse and FITC- conjugated goat anti- rabbit) was applied for 2 hours (1:200, Jackson Immuno, West Grove, Pa.). All antibodies were diluted in common antibody diluent (ScyTek, Logan, Utah). RNase A (10 μg/ml; Sigma) was added during the secondary antibody incubation (20 min), followed by the nuclear stain propidium iodide (5 μg/ml, Sigma). Propidium iodide was used to allow quantification of cell numbers for each treatment condition, using LCM and ImageSpace software as described below. Coverslips were then washed and mounted on glass slides (Fisher) using gelvatol fluorescence mounting medium.
A quantitative assessment of the results (i.e., the numbers of cell nuclei stained with propidium iodide and areas covered by immunofluorescent marker staining) using laser confocal microscopy and ImageSpace software (Molecular Dynamics, Sunnyvale, Calif.) was carried out as follows: six randomly chosen fields were analyzed per coverslip (well). The Argon/Krypton laser confocal microscope 40× objective with oil immersion lens (Model 2001, Molecular Dynamics) was used. Images of 512×512 pixels were collected at a pixel size of […]. Vertical sections were acquired in order to define vertical borders for the collection of Z-series. The step size between adjacent sections was […]. FITC was excited with a wavelength of 488 nm and collected with a 530DF30 filter. Propidium iodide was excited with a wavelength of 568 nm and collected with a 590DFLP filter. […]

Molecule	toxic effects (higher concentrations of FK506)	neurite outgrowth / neuronal processes extension	enhancement of neuronal differentiation (5 ng/ml, 7 days of treatment)	MAP-2 surface/cell number ratio (5 ng/ml, 7 days of treatment starting at DIC 12, vs control)	GFAP surface/cell number ratio (GFAP expression) (7 days of treatment, vs control)	number of neurons (BDNF: NeuN immunostaining, unpublished observations)
C=CC[C@@H]1/C=C(\C)C[C@H](C)C[C@H](OC)[C@H]2O[C@@](O)(C(=O)C(=O)N3CCCC[C@H]3C(=O)O[C@H](/C(C)=C/[C@@H]3CC[C@@H](O)[C@H](OC)C3)[C@H](C)[C@@H](O)CC1=O)[C@H](C)C[C@@H]2OC [FK506, reference compound]	did not appear to exert toxic effects					
BDNF: brain-derived neurotrophic factor (Promega), neurotrophic protein (protein, UniProt P23560 129-247, looked up, Neurotrophic factor BDNF, brain-derived neurotrophic factor (Promega), neurotrophic protein) Neurotrophic factor BDNF: HSDPARRGELSVCDSISEWVTAADKKTAVDMSGGTVTVLEKVPVSKGQLKQYFYETKCNPMGYTKEGCRGIDKRHWNSQCRTTQSYVRALTMDSKKRIGWRFIRIDTSCVCTLTIKRGR		tends to increase	not significant	not significantly different from control	decreased	modestly increasing
